Test results: the supplement of paper PMC12042874
± gives the uncertainty stated by the source.

Assay: amyloid nucleation score (Sup35N fusion, yeast selection) (log enrichment); library NNK1; higher = more nucleation; inactive = no reads after selection
Outline: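 On medium lacking adenine and uracil, psi-negative yeast expressing peptides of 20 random codons fused to Sup35N were grown 7 days at 30°C after a 24-hour induction with 100 μM copper sulfate. Illumina sequencing of input and output plasmid inserts gave the reads, and sequences under 100 input reads were excluded. The nucleation score is the DiMSum log enrichment of output over input reads, centred on the mode score of non-aggregating sequences.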

| Substance | amyloid nucleation score |
| --- | --- |
| VSSGRRIGCVSPGSGEAREW | 0.376 ± 0.61 |
| VSTCTL | inactive |
| VSYKCSVRFLCIGRLRGVLF | -0.197 ± 0.28 |
| VSYYITCRGKVETIALADRM | 0.088 ± 0.93 |
| VTACGYRMRRCRCFCECNGT | 0.72 ± 0.57 |
| VTCRCYSFSLMAGAMTRRSG | 0.188 ± 0.75 |
| VTDCKLMCTVRPVSGSKTPV | 0.139 ± 0.34 |
| VTFLFNFWHVFC | 6.95 ± 0.074 |
| VTFVIYNRDNSAEYGVVFC | -0.46 ± 0.71 |
| VTILWTKSYMESDISFYIMW | -1.03 ± 0.44 |
| VTIYFILRNGGRVSESLNPW | 7.19 ± 0.084 |
| VTRVLLVKWPYNTVETCGGA | -0.317 ± 0.33 |
| VTRVRFGSVWGSQVHRNFVM | 0.212 ± 0.4 |
| VTYNGYVG | -0.205 ± 0.58 |
| VTYTISRELSFCPPITFGTL | 0.777 ± 0.73 |
| VVASAFSSL | 0.388 ± 0.93 |
| VVCGIPVFNLRYL | -0.495 ± 0.42 |
| VVCQSDILDLSMWTMMGVSM | -0.823 ± 0.66 |
| VVCRCTYFRLITGDSSL | -0.136 ± 0.8 |
| VVCRVNTSVMGFKSNCRLGV | 0.624 ± 0.6 |
| VVDVSYRNLRRCM | 0.8 ± 0.36 |
| VVELASLEGGHELTNWVNLV | 0.231 ± 0.59 |
| VVGYRRTMGLVEFSLASVSN | -0.806 ± 0.76 |
| VVKSEVNTVA | 1.27 ± 0.62 |
| VVLAMTVRLWC | -0.667 ± 1.3 |

| Substance | amyloid nucleation score |
| --- | --- |
| VVLCSVLTFDPSAEHLCTLV | 6.44 ± 0.066 |
| VVLMLRDVEEFRQ | -0.38 ± 0.21 |
| VVLNCYIYVIPA | 3.39 ± 0.13 |
| VVMLNFYCIRNRRVWIVNIC | 3.76 ± 0.058 |
| VVNGTMFINPCYVQGRCKEM | 4.63 ± 0.067 |
| VVSFLLHPCDFRSWFCGCIW | -0.226 ± 0.93 |
| VVSNTGSFSPVRMR | -0.117 ± 0.42 |
| VVSWDS | -0.015 ± 0.41 |
| VVTQCLLAAAVHLYCNCHHM | 6.972 ± 0.045 |
| VVTSLIL | -0.999 ± 1.2 |
| VVTWVYASSVVLSSLPREGA | -0.115 ± 0.26 |
| VVWILMSAQNRMAPRFDVLT | 1.06 ± 0.51 |
| VVYDGIMSWIYYCRFVVDAV | inactive |
| VWDSFSHVLVRLGIYLFFYV | 0.763 ± 0.42 |
| VWFCLCLYM | 1.95 ± 0.091 |
| VWLRIM | -0.957 ± 2.4 |
| VWMVMSYPDHTLVLLLTG | -1.33 ± 0.57 |
| VWRSFKSMHSHRSNSNALWL | 1.96 ± 0.6 |
| VWRTEQ | -0.533 ± 0.66 |
| VWRTYVGPVCSMLAG | 0.641 ± 0.32 |
| VYASSCMLGTWLSDSTSGCS | 0.371 ± 0.69 |
| VYATSSIKIAVPVLHQAVLP | 3.14 ± 0.096 |
| VYESGRCNLACRMFARDGCS | -1.38 ± 2.4 |
| VYGFDRFKVRRMGESLWWS | inactive |
| VYIHTWIRVKIWSSS | 1.96 ± 0.65 |

| Substance | amyloid nucleation score |
| --- | --- |
| VYIYRSVPNTAPAPMIEKKD | -0.048 ± 1.2 |
| VYKFIFAYYYSEDVPFNRPL | inactive |
| VYLYMPPIDLL | -0.021 ± 0.46 |
| VYMMGGTLLRPYAILSYLDP | 0.465 ± 0.3 |
| VYNAPGCVNRSDLVV | -0.745 ± 2.4 |
| VYPWPVERSNFPTSALSYTK | -0.843 ± 0.6 |
| VYQKWLG | -0.778 ± 0.46 |
| VYRIAMIF | 1.22 ± 0.31 |
| VYRLRLVFKVSYFIIECHKG | -0.851 ± 0.4 |
| VYRNASLCVSEVL | 0.211 ± 0.97 |
| VYRVAKASM | -0.35 ± 1.9 |
| VYWMFV | 0.369 ± 0.3 |
| VYYLGVKAFLFNSSF | 0.824 ± 0.54 |
| WAFIHSCRYKLTCGGYFYAR | -0.236 ± 1.2 |
| WAICDSLLVLVSRKGSASSP | -1.56 ± 1.4 |
| WAILLSWGYKGSRAWWFFSI | -0.721 ± 0.49 |
| WAMREEVYSNSFSFMFALYW | 0.651 ± 0.36 |
| WASELVRHHNDKINCSLRCG | -0.253 ± 0.84 |
| WASTLEDVMRQEKVHLWMIG | -0.242 ± 0.3 |
| WCKILYAKQERWP | 0.677 ± 0.44 |
| WCLESINFRRMCMASSG | 0.893 ± 0.41 |
| WCNNYLSRLCRRVINLEAGL | -1.13 ± 1.9 |
| WCRDLHKLYLY | -0.2 ± 0.56 |
| WCSTQLVRKIKVFEKSERGV | -1.07 ± 2.1 |
| WCVFAFMKSQQCK | -0.112 ± 0.22 |

| Substance | amyloid nucleation score |
| --- | --- |
| WCVLTSMEAYWFGLSRN | 0.869 ± 0.54 |
| WCVYNFSCALISPY | 6.018 ± 0.054 |
| WCWLCVKRR | -0.108 ± 0.56 |
| WDATLNKITYKRSLVGSVSK | 0.275 ± 0.58 |
| WDDSINCTTK | inactive |
| WDFFYLMSMLPRDEVGFL | 0.756 ± 0.46 |
| WDHQNMNLYYIKYGMVMNQS | 3.17 ± 0.067 |
| WDSLDIHQFNKDMWQTSG | -0.909 ± 0.9 |
| WDTPFFCPSRNFRRATGPYP | 0.983 ± 0.53 |
| WEVSPIGVPYSY | -0.117 ± 0.57 |
| WFAFIWNNRKCNFRKGTRDV | 6.11 ± 0.075 |
| WFFRLLAMSRRTEVAGTSPL | 0.941 ± 0.65 |
| WFIAL | -0.068 ± 0.61 |
| WFMPTSRSKVVYLPSYRCNE | 0.432 ± 0.2 |
| WFSTDGWKNMSDSLASWSCY | 0.863 ± 0.42 |
| WFSVDFNNHLWFQNSYSMWG | 0.156 ± 0.43 |
| WFTAHMCDNHYSTIPNSPRQ | 1 ± 0.81 |
| WFTDLRNRGVVNTYTPIV | -0.131 ± 0.29 |
| WFVNIEGREEWKYHKGCEPK | 0.758 ± 0.49 |
| WGFESFSAWATMCERSRWHR | 0.428 ± 0.55 |
| WGICDLKVCVQPCPSSNARI | -0.059 ± 0.57 |
| WGKLTKQERGWDNDKVNQEC | 0.094 ± 0.4 |
| WGMCFAVPNISTGLNNYTMP | -0.234 ± 0.64 |
| WGNLCRNYD | 0.004 ± 0.28 |
| WHALVNRGHAWSRIGQDAGC | -0.003 ± 0.79 |

| Substance | amyloid nucleation score |
| --- | --- |
| WHGVFKTRNRLCGTLPWFCA | -0.143 ± 0.51 |
| WHQEWRKWADKGLAIRT | 0.836 ± 0.97 |
| WHRDVGFTLISVTPFCMMGG | 1.54 ± 0.33 |
| WITYHEFWRLTKGCLSFTDL | 0.023 ± 0.55 |
| WKIRKKA | 0.155 ± 0.7 |
| WLETRP | -0.226 ± 0.33 |
| WLHIPYS | 0.547 ± 0.61 |
| WLISLFRDDDRFNKVSKRAA | -0.3 ± 0.38 |
| WLMAKGRYLSAFTVSFIRSY | -1.28 ± 1.8 |
| WLPMPSV | 0.411 ± 0.47 |
| WLRMYLGINFSVRYCGRRVE | 0.465 ± 0.48 |
| WLSRSSFMKLCSTKFPRWRL | -0.494 ± 1.1 |
| WLTNWFEPRWSLVMQSVRCP | -0.121 ± 0.44 |
| WLTVITADSMAEGRQACRLP | 0.132 ± 0.46 |
| WLVAHAPGH | 0.471 ± 0.62 |
| WLWIRFIAVTSSSVEIRANS | -0.834 ± 0.54 |
| WMNGGQRSVWMCCMGRMHPW | 7.738 ± 0.054 |
| WNIRRIRSDTRTLFKCNL | 0.636 ± 0.32 |
| WNNGVLLNRV | 0.792 ± 0.41 |
| WNYTGSFFMQYSMGISRRDG | 1.59 ± 0.2 |
| WQSCWIWTKCRTVDVRRKKD | -0.598 ± 0.43 |
| WRCRGCMWAHRAWGNSSCV | -0.655 ± 0.98 |
| WRICLQCRAYPLRTTGGQRQ | 0.444 ± 0.69 |
| WRIEACFSNFARTIFLVSGW | -0.399 ± 0.3 |
| WRMFGGRSEQSFIVPCRLLG | 0.535 ± 1.2 |

| Substance | amyloid nucleation score |
| --- | --- |
| WRWYEGGLTLSWSHASSA | -0.536 ± 0.98 |
| WSATSATMLQSLPVQEEHVD | -0.38 ± 0.83 |
| WSCCAEERVTWGPAEMLLWG | -1.05 ± 2.7 |
| WSDYVDNPSVSARRSRQFRL | -1.21 ± 1.6 |
| WSFTK | -0.284 ± 0.68 |
| WSKCNVRMCWH | -0.122 ± 0.64 |
| WSLLCDCASGQCVMR | 0.005 ± 0.44 |
| WSLPAVRRCHNELEYCNTRR | 0.107 ± 0.34 |
| WSRMGLAILRFFKYLS | 0.093 ± 0.36 |
| WSTHRQESFALYSKCMEVRR | 0.186 ± 0.28 |
| WTLRYRSARLVACMINTDEM | 1.68 ± 0.46 |
| WTSIV | 1.38 ± 0.47 |
| WTVSSVIGNGWQCNRSYG | 0.247 ± 0.27 |
| WVAWTYMENLSCLYFETATM | -0.593 ± 0.57 |
| WVGQVLGREENCASASSFSE | -1.89 ± 2.7 |
| WVHMFMHDYNMRYTFSVYMC | inactive |
| WVLTVVFVDKWREAYMYATF | inactive |
| WVQGRRTFLVGWRGSQRGPI | -0.995 ± 0.81 |
| WVTSSAFEE | 0.277 ± 0.7 |
| WWGWKIDTNAQILARLCKCL | -0.005 ± 1.2 |
| WWLFHVFLLKRQSITNAGVR | inactive |
| WWYYNRRWLVTCKSVYGLGM | -0.34 ± 0.37 |
| WYGDSPECEV | 0.141 ± 0.73 |
| WYQLVVVEQGSTLYS | 0.341 ± 0.68 |
| WYRTRIQRRIFFNRAIYSTA | 0.368 ± 0.85 |

| Substance | amyloid nucleation score |
| --- | --- |
| YALGVAFSQNSYDT | 0.669 ± 0.63 |
| YCAKNCEGFGRVYISG | -2.42 ± 2.7 |
| YCFSSSYVWHNRDGSINMFK | inactive |
| YCIYVGFDLMCLSVWNGHRS | -1.39 ± 0.66 |
| YCLDGAFALVVNSLWLITAA | inactive |
| YCTCRLVKFEVDW | inactive |
| YCVTSMVRRLVKMLYDCRGV | inactive |
| YDHCEGCWMSNRMWELGWKG | 0.048 ± 0.33 |
| YDIGFVI | -0.067 ± 0.28 |
| YDKFFGVSIDDR | 0.038 ± 0.59 |
| YDLRNICTSTLMSHVNRFYV | -1.22 ± 0.83 |
| YDQGVPTDVLILIAIEHQLS | 5.53 ± 0.077 |
| YDTNDGFMTGVQ | -1.56 ± 1.3 |
| YELTRIR | 2.38 ± 0.17 |
| YFDRNFARYFCYRVTTT | 1.48 ± 0.2 |
| YFFDIGVDSCMRFDIRVVET | 1.77 ± 0.6 |
| YFFFYYYVVTIRKLLHVMGT | -0.854 ± 0.63 |
| YFGYRCDYRCNPPLAPLCAN | 0.515 ± 0.43 |
| YFKAMEVTFSFWH | 0.491 ± 0.23 |
| YFKEFWIWLW | inactive |
| YFRVLGN | -0.011 ± 0.3 |
| YFSDKVSSAFT | 0.318 ± 0.37 |
